According to the DeepSol protein solubility set:

Assay: soluble on expression in E. coli; label from the status in PepcDB or PDB records

| Sequence | soluble on expression in E. coli |
| --- | --- |
| SASSEVARHLLFQSHMATKTTCMSSQGSDDEQIKRENIRSLTMSGHVGFESLPDQLVNRSIQQGFCFNILCVGETGIGKSTLIDTLFNTNFEDYESSHFCPNVKLKAQTYELQESNVQLKLTIVNTVGFGDQINKEESYQPIVDYIDAQFEAYLQEELKIKRSLFTYHDSRIHVCLYFISPTGHSLKTLDLLTMKNLDSKVNIIPVIAKADTVSKTELQKFKIKLMSELVSNGVQIYQFPTDDDTIAKVNAAMNGQLPFAVVGSMDEVKVGNKMVKARQYPWGVVQVENENHCDFVKLREMLICTNMEDLREQTHTRHYELYRRCKLEEMGFTDVGPENKPVSVQETYEAKRHEFHGERQRKEEEMKQMFVQRVKEKEAILKEAERELQAKFEHLKRLHQEERMKLEEKRRLLEEEIIAFSKKKATSEIFHSQSFLATGSNLRKDKDRKNSNFL | not soluble |
| SASVRIREAKEGDCGDILRLIRELAEFEKLSDQVKISEEALRADGFGDNPFYHCLVAEILPAPGKLLGPCVVGYGIYYFIYSTWKGRTIYLEDIYVMPEYRGQGIGSKIIKKVAEVALDKGCSQFRLAVLDWNQRAMDLYKALGAQDLTEAEGWHFFCFQGEATRKLAGK | soluble |
| SCEGPSRISGPIPPDPTLCPDNYRRPTSAQGRLEGNALKLDLLTSDRALDTTAPRGPCIGPGAGEILERGQRGVGDVLLQLEGISLGPGASLKRKDPKDHEKENLRRIREIQKRFREQERSREQGQPRPLKALWRSPKYDKVESRVKAQLQEPGPASGTESAHFLRAHSRCGPGLPPPHVSSPQPTPPGPEAKEPGLGVDFIRHNARAAKRAPRRHSCSLQVLAQVLEQQRQAQEHYNATQKGHVPHYLLERRDLWRREAEARKQSQPDPAMPPGHTRMPENQRLETLTKLLQSQSQLLRELVLLPAGADSLRAQSHRAELDRKLVQVEEAIKIFSRPKVFVKMDD | soluble |
| SDEFVNLKETELRLGLPGTDNVCEAKERVSCCNNNNKRVLSTDTEKEIESSSRKTETSPPRKAQIVGWPPVRSYRKNNIQSKKNESEHEGQGIYVKVSMDGAPYLRKIDLSCYKGYSELLKALEVMFKFSVGEYFERDGYKGSDFVPTYEDKDGDWMLIGDVPWEMFICTCKRLRIMKGSEAKGLGCGV | soluble |
| SDMRQHEEYIADMALDPAKKLLLTASGDGCLGVFNIKRRRFELLSEPQSGDLTSVALMKYGKKVACGSSEGTIYLFNWNGFGATSDRFALRAESIDCIVPVTENLLCTSSTDGIIRAVNILPNRVVGTVGQHAGEPVEALALSHCGHFLASSGHDQRLKFWDMTQLRTVVVDDYRRRKKKGGPLRALSSKAWSTDDFFAGLREDEEDAKAPEEVVRESDDDDDDSD | soluble |
| SDRFTSQSSFVVRSPKSQSSLNGLGAILQGTGFARAQDDIYTVGEYMRSRSSLDELRKILPVREFYETKGDAFSRFNGFGFRGEEEAFYQYYKNQ | not soluble |
| SDRFVWTSGLLEINETLVIQQRGVRIYDGEEKIKFDAGTLLLSTHRLIWRDQKNHECCMAILLSQIVFIEEQAAGIGKSAKIVVHLHPAPPNKEPGPFQSSKNSYIKLSFKEHGQIEFYRRLSEEMTQRRWENMPVSQSLQTNRGPQPGRIRAVGIVGIERKLEEKRKETDKNISEAFEDLSKLMIKAKEMVELSKSIANKIKDKQGDITEDETIRFKSYLLSMGIANPVTRETYGSGTQYHMQLAKQLAGILQVPLEERGGIMSLTEVYCLVNRARGMELLSPEDLVNACKMLEALKLPLRLRVFDSGVMVIELQSHKEEEMVASALETVSEKGSLTSEEFAKLVGMSVLLAKERLLLAEKMGHLCRDDSVEGLRFYPNLFMTQS | soluble |
| SDTFSTKSLALQAQKKVLSKMASKAMVAVFVDNTSSEVLDELYQATKEFTRSRKEAQRVVKNLVKVAVKLAVLLRADQLDSNELAQLQRFRGRVRSLAMTALSFHQVDFTFDRRVLATGLLECRDLLHQAIGPHLTAKSHGRINHIFSHFANGDFLAALYSPAEPYRSHLCRICDGLGRMLDEGGI | soluble |
| SEDNITVRFVTENDKEGWQRLWKSYQDFYEVSFPDDLDDFNFGRFLDPNIKMWAAVAVESSSEKIIGMINFFNHMTTWDFKDKIYINDLYVDENSRVKGAGGKLIQFVYDEADKLGTPSVYWCTDESNHRAQLLYVKVGYKAPKILYKRKGY | soluble |
| SEEDIDTRKINNSFLRDHSYATEADIISTVEFNHTGELLATGDKGGRVVIFQREQESKNQVHRRGEYNVYSTFQSHEPEFDYLKSLEIEEKINKIRWLPQQNAAYFLLSTNDKTVKLWKVSERDKRPEGYNLKDEEGRLRDPATITTLRVPVLRPMDLMVEATPRRVFANAHTYHINSISVNSDYETYMSADDLRINLWNFEITNQSFNIVDIKPANMEELTEVITAAEFHPHHCNTFVYSSSKGTIRLCDMRASALCDRHTKFFEEPEDPSNRSFFSEIISSISDVKFSHSGRYIMTRDYLTVKVWDLNMENRPIETYQVHDYLRSKLCSLYENDCIFDKFECVWNGSDSVIMTGSYNNFFRMFDRNTKRDVTLEASRENSKPRAILKPRKVCVGGKRRKDEISVDSLDFSKKILHTAWHPSENIIAVAATNNLYIFQDKVN | not soluble |
| SEHPQPVTTQIEKSVNTALNKNYVFNKADYQYTLTNPSLGKIVGGILYPNATGSTTVKISDKSGKIIKEVPLSVTASTEDNFTKLLDKWNDVTIGNYVYDTNDSNMQKLNQKLDETNAKNIEAIKLDSNRTFLWKDLDNLNNSAQLTATYRRLEDLAKQITNPHSTIYKNEKAIRTVKESLAWLHQNFYNVNKDIEGSANWWDFEIGVPRSITGTLSLMNNYFTDAEIKTYTDPIEHFVPDAEYFRKTLVNPFKALGGNLVDMGRVKIIEGLLRKDNTIIEKTSHSLKNLFTTATKAEGFYADGSYIDHTNVAYTGAYGNVLIDGLTQLLPIIQETDYKISNQELDMVYKWINQSFLPLIVKGELMDMSRGRSISREAASSHAAAVEVLRGFLRLANMSNEERNLDLKSTIKTIITSNKFYNVFNNLKSYSDIANMNKLLNDSTVATKPLKSNLSTFNSMDRLAYYNAKKDFGFALSLHSKRTLNYEGMNDENTRGWYTGDGMFYIYNSDQSHYSNHFWPTVNPYKMAGTTEKDAKREDTTKEFMSKHSKDAKEKTGQVTGTSDFVGSVKLNDHFALAAMDFTNWDRTLTAQKGWVILNDKIVFLGSNIKNTNGIGNVSTTIDQRKDDSKTPYTTYVNGKTIDLKQASSQQFTDTKSVFLESKEPGRNIGYIFFKNSTIDIERKEQTGTWNSINRTSKNTSIVSNPFITISQKHDNKGDSYGYMMVPNIDRTSFDKLANSKEVELLENSSKQQVIYDKNSQTWAVIKHDNQESLINNQFKMNKAGLYLVQKVGNDYQNVYYQPQTMTKTDQLAI | soluble |
| SFALEELPRIPDFTERAICELFELYASIESVQLPPQSSDATNSSSATAPGNIFSAERGPRYLGPRALVRFFTELGVDMRSLAALAFAWLGRWQYPCHCREEGFARGVRYALWALDRRQHNEPRRWEQVQATCSTLLETSIWPRESTALFERLRSAFPDAVLSYTQRSAEAALDFYLFAFDLNRQSPYRRSLSLTDARYLWKQFLSESCYLATPASPGTPAGVANQPWRYLEHFDAYLESRCGMAGTIISRDTWYWVLMFARETQVAGSSFFANYNQGDAWPVLLDGFVEYLRENKLLSS | soluble |
| SFGCLVAGRLVQTAAQQVAEDKFVFDLPDYESINHVVVFMLGTIPFPEGMGGSVYFSYPDSNGMPVWQLLGFVTNGKPSAIFKISGLKSGEGSQHPFGAMNIVRTPSVAQIGISVELLDSMAQQTPVGNAAVSSVDSFTQFTQKMLDNFYNFASSFAVSQAQMTPSPSEMFIPANVVLKWYENFQRRLAQNPLFWKT | soluble |
| SFQGADSQAGKSGSRSMKPPGGESSDLFGSPEEGISSSKPNRMASNIFGPTEEPKNIPKRTNPPGGKGSGIFDESTPVQTRQRLNPPGGKTSDIFGSPVTATAPLAHPNKPKDHVLLCEGEDSKSDLKAATDSTPRGEQSDKGSSKEVEHAKIPEPTPTVDSHEPRLGPRPRSHNKVLNPPGGKSSLSFY | soluble |
| SFQGIRQPVTVTELVDSGILRPSTVNELESGQISYDEVGERIKDFLQGSSCIAGIYNETTKQKLGIYEAMKIGLVRPGTALELLEAQAATGFIVDPVSNLRLPVEEAYKRGLVGIEFKEKLLSAERAVTGYNDPETGNIISLFQAMNKELIEKGHGIRLLEAQIATGGIIDPKESHRLPVDIAYKRGYFNEELSEILSDPSDDTKGFFDPNTEENLTYLQLKERCIKDEETGLCLLPLKEKKKQVQTS | soluble |
| SGLRDWLRTVCCCCGCECLEERALPEKEPLVSDNNPYSSFGATLVRDDEKNLWSMPHDVSHTEADDDRTLYNLIVIRNQQAKDSEEWQKLNYDIHTLRQVRREVRNRWKCILEDLGFQKEADSLLSVTKLSTISDSKNTRKAREMLLKLAEETNIFPTSWELSERYLFVVDRLIALDAAEEFFKLARRTYPKKPGVPCLADGQKELHYLPFPSP | soluble |
| SGVTGAHGFPCCGKGSVEVAEMRDDLSQHQIQEEQELEADMLEQKPQLQVDLDLDPDPDPDPELEIGQVPALLESELYPALKLEAELDTEANSNEESDFEEPMQLVCKIESVHSNMGLPTPQTFRPWSLNSNCRSFTEENHMSACHHSISAQTSKHLFWANKLIQASEHSLQRAINMQLNNGSAGQPIRSPLREAIPTNALCSEEQLQIPDAHSAPPTTSSQAPSPLLSSDLPPPIDLTELITFASSLAMASSSRMDLPSLEHMMKAPPQEALEPSTEPLLTTVEEREPENHAETLPEKPREARAPLKSWSQEDKNFAQSYFDFSKPGIKRATIKGQIQLLQPPATSPLLQGSKEDSVPPGKEKENPLLVKIHFKLSAPTIPEK | soluble |
| SHMAIVKVTDADFDSKVESGVQLVDFWATACGPCKMIAPVLEELAADYEGKADILKLDVDENPSTAAKYEVMSIPTLIVFKDGQPVDKVVGFQPKENLAEVLDKHL | soluble |
| SHMSKAKFDKAVEIVQSLPKDGPIKPTQDEQLYFYKYFKQATVGDVNISRPGLMDFTGKAKWDAWKSVEGTSKEVAYQKYVEKLLEILKKADTEESKKYIAEIEAA | soluble |
| SIPALHRLVTVNMIPDASNDNIMVMRSYQIQATREILQRMKEMEASGLVQKEGGYIWHTTGSGKTVTSFKVAQLLASAPRIKNVLFIVDRIDLIDQTLENFKSFAYAHFKNRIKKVNGRELKRELKRKGSSQILLISVQGLTKAVKKGLENDDWNVIIMDEAHRSASGESVKLIKKALKKTTWFGFTGTPN | not soluble |
| SISQQTVWNQMATVRTPLNFDSSKQSFCQFSVDLLGGGISVDKTGDWITLVQNSPISNLLRVAAWKKGCLMVKVVMSGNAAVKRSDWASLVQVFLTNSNSTEHFDACRWTKSEPHSWELIFPIEVCGPNNGFEMWSSEWANQTSWHLSFLVDNPKQSTTFDVLLGISQNFEIAGNTLMPAFSVPQANARSSENAESSA | soluble |
| SIVHHAKERLILCSPYFIPDESLLEAVTSACYRGVTVELFVSEQADQFAIDHAQSSYYQALLEAGVKIYQFPKPDVLHTKYMIADPDDTTGNEALGVLGSSNLDIRSFGLNYEISLMIAKGNLIHELNALTDRYRTVSFKLTLDKWNQRSWRRRYVDNVMRLTSALQ | not soluble |
| SIYQVAIKSLPQDWLWCETWCDDESKQRAKTIDLCNNPKTKEPKLEAAARIVPEWVTYDTEIRTLLDHLENKKKSANSVHDEL | soluble |
| SKAAIYHAFSHKEAKDHDVQELGSQRAEAFVRAFLKQSIPHMSQEDCESHLQRKAVILEYFTRLKPRPRPKKKSKGLSAKQRRDMRLFDIKPEQQRYSLFLPLHELWKQYIRDLCNGLKPDTQPQMIQAKLLKADLHGAIISVTKSKCPSYVGVTGILLQETKHVFKIITREDHLKVIPKLNCVFTIEIDDFISYIYGSKFQLRASERSAKKFKAKGSIDL | soluble |
